Experimental data taken from the DeepSol protein solubility set.

Assay: soluble on expression in E. coli; label from the status in PepcDB or PDB records
With “MRRNISIPASDSESALPGSPQGSDAHVSWWCGCGVIVGMSVSLLRGRTVRRALSVLVVAGLLGAGVTGCSNDAGAKTENTIDASPTPTNTTTDGDGDSTEEPVENTPAEPEQRPTPVEPEAMKTGDKAGAIAAAQFFVEVFDYDARTSSTTLMDKYAYKKCTLCNEMRSDKQRLIDEGEISFWAEYSEAEYINSTFVGDEEIIWEVDTETSYLEHVRSLTSNEITSTRTDLILTMQIGWLGDRWELVSLGYSKK” the “soluble on expression in E. coli” value was “not soluble”. For “MRRVETDSTGQIEVDNDKYWGAQTQRSIEHFSIGSDLMPIEVIKALAIIKKAAAITNHQLGILARTKKEIIIKVADEIIAGELDEHFPLRVLMTGSGTQSNMNVNEVISNRAIELLGGKKGSKNPIHPNDDVNMSQSSNDTFPSAMYIATALEINNRLLPALEYMQQQLADKAKQWDDIVKIGRTHMQDAVPLTLGQEFSGYAALLENNIQRIKDTLKYVYQLALGGTAVGTGLNAPDGFAEITAKYIATITSLAFVSATNKFEVQGSHDALVAVMGQLKTLANSLFKIANDIRLLSCGPRAGFHELLIPENEPGSSIMPGKVNPTQCEAMAMVAAQVIGYDVAVGIGGSAGYLEMNVYKPLIIFNIIQSIKIISDSCVNFTKYLLEGMKPNHDKIEFYLKNSLMLVTALSPVIGYDKAAKLAHYAEQKNISLAEANQELKFLSKEEFDKVVDPYKMTKGGIL”, the “soluble on expression in E. coli” value was “not soluble”. In the case of “MRRVLVGAAALITALLVLTGCTKSISGTAVKAGGAGVPRNNNSQERYPNLLKECEVLTTDILAKTVGADPLDIQSTFVGAICRWQAANPAGLIDITRFWFEQGSLSNERKVAEGLKYQVETRAIQGVDSIVMRTGDPNGACGVASDAAGVVGWWVNPQAPGIDACGQAIKLMELTLATNA”, the “soluble on expression in E. coli” value is reported as “soluble”. For “MRSGDAEIKGIKPKVIEEYSLSQGSGPSNDSWKSLMSSAKDTPLQYDHMNRESLKKYFNPNAQLIEDPLDKPIQYRVCEKCGKPLALTAIVDHLENHCAGASGK”, the “soluble on expression in E. coli” value was “soluble”. With “MRSISVGLDREESGSDGLCLGLVVLATLAAGFVAGSDVLRCWGFGPATGDVCLWVEAGFWRCPLPGGGADGQGPGFWDAALREARMFCRSCVGLRMIGWRR” the “soluble on expression in E. coli” value was “not soluble”. For “MRTFTWRKGSLSKVNTCYVLAGGKSKRFGEDKLLYEIKGKKVIERVYETAKSVFKEVYIVAKDREKFSFLNAPVVLDEFEESASIIGLYTALKHAKEENVFVLSGDLPLMKKETVLYVLENFKEPVSVAKTEKLHTLVGVYSKKLLEKIEERIKKGDYRIWALLKDVGYNEVEIPEELRYTLLNMNTKEDLKRILAIENHY”, the “soluble on expression in E. coli” value was “soluble”. In the case of “MRTHDDTWDIKTSVGTTAVMVAAARAAETDRPDALIRDPYAKLLVTNTGAGALWEAMLDPSMVAKVEAIDAEAAAMVEHMRSYQAVRTNFFDTYFNNAVIDGIRQFVILASGLDSRAYRLDWPTGTTVYEIDQPKVLAYKSTTLAEHGVTPTADRREVPIDLRQDWPPALRSAGFDPSARTAWLAEGLLMYLPATAQDGLFTEIGGLSAVGSRIAVETSPLHGDEWREQMQLRFRRVSDALGFEQAVDVQELIYHDENRAVVADWLNRHGWRATAQSAPDEMRRVGRWGDGVPMADDKDAFAEFVTAHRL”, the “soluble on expression in E. coli” value is reported as “soluble”. For “MRTLYPEITPYQQGSLKVDDRHTLYFEQCGNPHGKPVVMLHGGPGGGCNDKMRRFHDPAKYRIVLFDQRGSGRSTPHADLVDNTTWDLVADIERLRTHLGVDRWQVFGGSWGSTLALAYAQTHPQQVTELVLRGIFLLRRFELEWFYQEGASRLFPDAWEHYLNAIPPVERADLMSAFHRRLTSDDEATRLAAAKAWSVWEGATSFLHVDEDFVTGHEDAHFALAFARIENHYFVNGGFFEVEDQLLRDAHRIADIPGVIVHGRYDVVCPLQSAWDLHKAWPKAQLQISPASGHSAFEPENVDALVRATDGFA”, the “soluble on expression in E. coli” value was “soluble”. With “MRTTSRALMYGLYDEFQISLKCPRSPPNSSFSICHAQAAFLSGVCEAMLCPLERVQVLLQTTIFHDKFKNTLHTFNRLRDYGYREYYRGFSVILIRNSLSNTIFFTLRDPLKQKIVGIPQAGRLPESLQQLIGDFVAGSLLGATISTAFFPLGVIKNHMQAKVGVKYESGFKVFRDVWQLRNRSLRGLYLGVHLNFTRSLVAWGIINSMYGILRRALAPFE” the “soluble on expression in E. coli” value was “not soluble”. For “MRVKTGVVRRRRHKKVLKLARGFYSGRRKHFRKAKEQLERSMYYAFRDRKQKKREFRSLWVVRINAACRMHNTSYSRFMHALKVANIELDRKVLADMAMNDMQAFTSVLESVKEHLLEHHHHHH”, the “soluble on expression in E. coli” value was “soluble”.
